The substances below were run against HLA-A*02:01 (Homo sapiens, UniProt P04439, D140Y/D185E/D98H/E176V/E277Q/G131W/G231S/I119V/I121R/I166T/I218V/L300P/L318F/N151K/N90K/P208A/P217A/Q86G/Q94H/R138H/R169H/T345S) (assay: MHC binding assay (UV-ligand exchange, beta2m ELISA)). Settings: peptide exchange yield, HLA-A*02:01, UV-ligand exchange.
From the text: Candidate peptides for T cell based therapies according to the present invention were further tested for their MHC binding capacity (affinity). The individual peptide-MHC complexes were produced by UV-ligand exchange, where a UV-sensitive peptide is cleaved upon UV-irradiation, and exchanged with the peptide of interest as analyzed. Only peptide candidates that can effectively bind and stabilize the peptide-receptive MHC molecules prevent dissociation of the MHC complexes. To determine the yield of the exchange reaction, an ELISA was performed based on the detection of the light chain (β2m) of stabilized MHC complexes. The assay was performed as generally described in Rodenko et al. (Rodenko et al., 2006).
96 well MAXISorp plates (NUNC) were coated over night with 2 ug/ml streptavidin in PBS at room temperature, washed 4× and blocked for 1 h at 37° C. in 2% BSA containing blocking buffer. Refolded HLA-A*02:01/MLA-001 monomers served as standards, covering the range of 15-500 ng/ml. Peptide-MHC monomers of the UV-exchange reaction were diluted 100 fold in blocking buffer. Samples were incubated for 1 h at 37° C., washed four times, incubated with 2 ug/ml HRP conjugated anti-β2m for 1 h at 37° C., washed again and detected with TMB solution that is stopped with […]. Absorption was measured at 450 nm. Candidate peptides that show a high exchange yield (preferably higher than 50%, most preferred higher than 75%) are generally preferred for a generation and production of antibodies or fragments thereof, and/or T cell receptors or fragments thereof, as they show sufficient avidity to the MHC molecules and prevent dissociation of the MHC complexes.

| Substance | Peptide exchange (MHC class I binding score) |
| --- | --- |
| 4 (FLSQDIITV; listed as Homo sapiens) [compound 4] | +++ (≥50 = +++) |
| 5 (YLYPNLTRL; listed as Homo sapiens) [compound 5] | ++ (≥20% = ++) |
| 8 (GLASFKSFL; listed as Homo sapiens) [compound 8] | ++ (≥20% = ++) |
| 10 (KLLQNNYGL; listed as Homo sapiens) [compound 10] | ++ (≥20% = ++) |
| 11 (FIQTEAPKEV; listed as Homo sapiens) [compound 11] | ++ (≥20% = ++) |
| 12 (ALDPSGNQLI; listed as Homo sapiens) [compound 12] | ++ (≥20% = ++) |
| 13 (KIMAQILTV; listed as Homo sapiens) [compound 13] | +++ (≥50 = +++) |
| 14 (ALLTETIFL; listed as Homo sapiens) [compound 14] | ++ (≥20% = ++) |
| 17 (ILAQQVHAL; listed as Homo sapiens) [compound 17] | +++ (≥50 = +++) |
| 18 (YVLDLAAKV; listed as Homo sapiens) [compound 18] | +++ (≥50 = +++) |
| 19 (LLDPGSLQL; listed as Homo sapiens) [compound 19] | ++ (≥20% = ++) |
| 21 (RLIQGDQILSV; listed as Homo sapiens) [compound 21] | ++ (≥20% = ++) |
| 22 (FLSPPLPSV; listed as Homo sapiens) [compound 22] | +++ (≥50 = +++) |
| 23 (YIQEVVQYI; listed as Homo sapiens) [compound 23] | +++ (≥50 = +++) |
| 24 (FTLGTTVFL; listed as Homo sapiens) [compound 24] | +++ (≥50 = +++) |
| 25 (LLVPAHLVAA; listed as Homo sapiens) [compound 25] | ++ (≥20% = ++) |
| 27 (SLSDLLVSL; listed as Homo sapiens) [compound 27] | +++ (≥50 = +++) |
| 28 (FIADLVVGL; listed as Homo sapiens) [compound 28] | ++ (≥20% = ++) |
| 30 (QLFYTKIFL; listed as Homo sapiens) [compound 30] | ++ (≥20% = ++) |
| 31 (VLFGLDPAVIKV; listed as Homo sapiens) [compound 31] | +++ (≥50 = +++) |
| 33 (FIADVVEKI; listed as Homo sapiens) [compound 33] | ++ (≥20% = ++) |
| 34 (ELNNQNFYL; listed as Homo sapiens) [compound 34] | +++ (≥50 = +++) |
| 35 (VLHSLQTQL; listed as Homo sapiens) [compound 35] | ++ (≥20% = ++) |
| 36 (SLFGKKYIL; listed as Homo sapiens) [compound 36] | ++ (≥20% = ++) |
| 37 (VLAPVILML; listed as Homo sapiens) [compound 37] | ++ (≥20% = ++) |
| 38 (VLLDTILQL; listed as Homo sapiens) [compound 38] | +++ (≥50 = +++) |
| 39 (YLLNLNHLGL; listed as Homo sapiens) [compound 39] | +++ (≥50 = +++) |
| 40 (YIQEHLLQI; listed as Homo sapiens) [compound 40] | +++ (≥50 = +++) |
| 41 (GLLKTLQKL; listed as Homo sapiens) [compound 41] | ++ (≥20% = ++) |

Second part, the substance after the results:

| Peptide exchange (MHC class I binding score) | Substance |
| --- | --- |
| ++ (≥20% = ++) | 42 (VILDTGTIQL; listed as Homo sapiens) [compound 42] |
| +++ (≥50 = +++) | 43 (YLKDELDEL; listed as Homo sapiens) [compound 43] |
| +++ (≥50 = +++) | 44 (ALFSFVTAL; listed as Homo sapiens) [compound 44] |
| +++ (≥50 = +++) | 45 (ALLGIPLTL; listed as Homo sapiens) [compound 45] |
| +++ (≥50 = +++) | 46 (GLSEVLVQI; listed as Homo sapiens) [compound 46] |
| +++ (≥50 = +++) | 47 (TLAEVRAVQEI; listed as Homo sapiens) [compound 47] |
| ++ (≥20% = ++) | 48 (VVASNIMEV; listed as Homo sapiens) [compound 48] |
| +++ (≥50 = +++) | 49 (VLIVEVPGV; listed as Homo sapiens) [compound 49] |
| ++ (≥20% = ++) | 50 (SLSDHIVLL; listed as Homo sapiens) [compound 50] |
| +++ (≥50 = +++) | 51 (NLWPMILTL; listed as Homo sapiens) [compound 51] |
| ++ (≥20% = ++) | 52 (SILDAVQRV; listed as Homo sapiens) [compound 52] |
| ++ (≥20% = ++) | 53 (FLLEIRQTL; listed as Homo sapiens) [compound 53] |
| ++ (≥20% = ++) | 54 (ALVAKGLVQA; listed as Homo sapiens) [compound 54] |
| ++ (≥20% = ++) | 55 (YLALILPVL; listed as Homo sapiens) [compound 55] |
| +++ (≥50 = +++) | 56 (ILMDFSNSM; listed as Homo sapiens) [compound 56] |
| ++ (≥20% = ++) | 57 (SLQKEILYL; listed as Homo sapiens) [compound 57] |
| ++++ (≥75% = ++++) | 58 (FLVDFEQSHL; listed as Homo sapiens) [compound 58] |
| +++ (≥50 = +++) | 59 (SLKNNVVSV; listed as Homo sapiens) [compound 59] |
| +++ (≥50 = +++) | 60 (ILWKDIEYV; listed as Homo sapiens) [compound 60] |
| ++ (≥20% = ++) | 61 (SLMGILLRI; listed as Homo sapiens) [compound 61] |
| +++ (≥50 = +++) | 62 (VLAGPAFLVQL; listed as Homo sapiens) [compound 62] |
| ++ (≥20% = ++) | 63 (GLIEDHFDVTV; listed as Homo sapiens) [compound 63] |
| ++ (≥20% = ++) | 64 (LLAASVALA; listed as Homo sapiens) [compound 64] |
| ++ (≥20% = ++) | 65 (IIYGGSVTGA; listed as Homo sapiens) [compound 65] |
| ++ (≥20% = ++) | 66 (TLLKTIIKV; listed as Homo sapiens) [compound 66] |
| ++ (≥20% = ++) | 67 (LLDVLAPLV; listed as Homo sapiens) [compound 67] |
| ++ (≥20% = ++) | 68 (YVLTQPPSV; listed as Homo sapiens) [compound 68] |
